Test: yeast display, Sf9 membrane polyspecificity reagent, FACS + sequencing; frameworks hold sequencing errors
Procedure, shortened: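 Using colony PCR, genes from sorted yeast display clones were amplified, then sequenced on MiSeq at 2 × 250 and filtered by CDR length. The clones had been stained with 10% biotinylated, detergent-solubilized Sf9 membrane reagent for 1 hour at 4 °C and sorted by FACS into low and high (top ~1%) gates on anti-HA and streptavidin fluorescence. Polyreactivity labels come from the gate of origin.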

Row | Sequence | polyreactivity (PSR sort gate)
1 | QVQLVESGGGLVQAGGSLRLSCAASGSIFTINAMGWYSQAPGKERELVAALTSGGSTSYADSVKGRFTISRDIAKNTVYLQMNSLKPEDTAVYYCAADAKRFYPYRWRLYYWGQGTQVTVSS | high polyreactivity
2 | QVQLVESGGGLVQAGGSLRLSCAASGSIFTLNAMGWYRQAPGKERELVAAISRSGGSTYYADSVKGRFTISRDNAKNTVYLQMNSLKPEDTAVYYCAVYVTRDSGWWLYDYWGQGTQVTVSS | high polyreactivity
3 | QVQLVESGGGLVQAGGSLRLSCAASGSIFTLYAMGWYRQAPGKERELVAAITWSGGSTYYADSVKGRFTISRDNAKNTVYLQMNSLKPEDTAVYFCAKDYLAGGPWEGHVEREYDYWGQGTQVTVSS | low polyreactivity
4 | QVQLVESGGGLVQAGGSLRLSCAASGSIFTPNAMGWYRQAPGKERALVAAISSSSDRTYYADSVKGRFTISRDNAKNTVYLQMNSLKPEDTAVYYCAAYAQKRYYWGQGTQVTVSS | high polyreactivity
5 | QVQLVESGGGLVQAGGSLRLSCAASGSIFTPNSMGSYRPAPGKERELVAAISSSSDRTYYADSVKGRFTISRDNAKNTVYLQRNSLKPEDTAVYYCAAYAQKRYYWGQGTEVTVSS | high polyreactivity
6 | QVQLVESGGGLVQAGGSLRLSCAASGSIFTPYAMGWYRQAPGKERELVAAISRSGGSTYYADSVKGRFTISRDKAKNTVYLQMNRLKPADSAVYYCAADVQTLITLGQFDYWGQGTQVTVSS | low polyreactivity
7 | QVQLVESGGGLVQAGGSLRLSCAASGSIFTPYAMGWYRQAPGKERELVAAISRSGGSTYYADSVKGRFTISRDNAKITVYLQMNSLKPEDTAVYYCAVVASLSHTETPEYDYWGQGTQGTVSS | low polyreactivity
8 | QVQLVESGGGLVQAGGSLRLSCAASGSIFTPYAMGWYRQAPGKERELVATISARGGSTYYADSVKGRFTISRDNAKNTVYLQMNSLKPEDTAVYYCNVDYAQRVFLYDYWGQGTQVTVSS | low polyreactivity
9 | QVQLVESGGGLVQAGGSLRLSCAASGSIFTRNAMGWYRQAPGKERELVAAISWRGGITNYADSVKGRFTISRDNAKNTVYLQMNSLKPEDTAVYYCNKKRTRGGYGYWGQGTQVTVSS | high polyreactivity
10 | QVQLVESGGGLVQAGGSLRLSCAASGSIFTRNTMGWSRQAPGKERELVAAISQRGGSTYSADSVKGRFTISRDNAKNTVYLQMNSLKPEDTAVYYCAADFSFGYYWDGFWGQGTQVTVSS | high polyreactivity
11 | QVQLVESGGGLVQAGGSLRLSCAASGSIFTRYAMGWYRQAPGKERELVAAISRSDGGTNYADSVKGRFTISRDNAKNTVYLQMNSLKPEDTAVYYCAKDWYYYYPYDYWGQGTQVTVSS | low polyreactivity
12 | QVQLVESGGGLVQAGGSLRLSCAASGSIFTRYVQGWYRQAPGNDRELVAAISGRGSSTYYADSVKGRFTISRDNAKNTVYLQMNSLKPEDTAVYYCAAEIVVFYSEGQRNTFYYWGQGTQVTVSS | high polyreactivity
13 | QVQLVESGGGLVQAGGSLRLSCAASGSIFTSNAMGWYRQAPVKERELVASISSDGSTKYADSVKGRFTISRDNAKNTVYLQMNSLKPEDTAVYYCAADLGYWVYVEYDYWGQGTQVTVSS | low polyreactivity
14 | QVQLVESGGGLVQAGGSLRLSCAASGSIFTSYAIGWYRQAPGKERELVAGIDWSGGGTYYADSVKGRFTISRDNAKNTVYLQMNSLKPEDTAVYYCNADGPYTRYGPVDYWGQGTQVTVSS | low polyreactivity
15 | QVQLVESGGGLVQAGGSLRLSCAASGSIFTSYAMGWYRQAPGKERELVAGITRGGRTYYADSVKGRFTISRDNAKNTVYLQMNSLKPEDTAVYYCAALSSRHFVFTVDYWGQGTQVTVSS | high polyreactivity
16 | QVQLVESGGGLVQAGGSLRLSCAASGSIFTSYGMGWYRQAPGKERELVAAITYSGDRTYYADSVKGRFTISRDNAKITVYLQMNSLNPEDTAVYYCNVAYVYGSFRRRPMGYWGQGTQVTVSS | high polyreactivity
17 | QVQLVESGGGLVQAGGSLRLSCAASGSIFTTYAMGWSRQAPGKERELVAAISRSGGSTYSADSVKGRFTISRDNANYTVYLQKNSLKPEDTAVYYCNAVSRYTSDYEDDYWGLGTQVTVSS | high polyreactivity
18 | QVQLVESGGGLVQAGGSLRLSCAASGSIFTTYAMGWYRQAPGKERELVAAISRAGDTTYADSVKGRFTISRDNAKNTVYLQMNSLKPEDTAVYYCADYDYWGQGTQVTVSS | low polyreactivity
19 | QVQLVESGGGLVQAGGSLRLSCAASGSIFTTYAMGWYRQAPGKERELVAGITGGDSSTYADSVKGRFTISRDNAKNTVYLQMNSLKPEDTAVYYCAVDSPYQHDDYWGQGTQVTVSS | low polyreactivity
20 | QVQLVESGGGLVQAGGSLRLSCAASGSIFTTYAMGWYRQAPGKERELVAVISRRGGSTYYADSVKGRFTISRDNAKNTVYLQMNSLTPEDTADYYCNAYTYTYHRDHTDRYNYWGQGTQVTVSS | high polyreactivity
21 | QVQLVESGGGLVQAGGSLRLSCAASGSIFTVNAMGWYRPAPAKERELVATISDTGGSTYADSVKGRFTISRYNAKNTVYLQMNSLKPEDTAVYYCNADYYVRRYPPYDYWGQGTQVTVSS | low polyreactivity
22 | QVQLVESGGGLVQAGGSLRLSCAASGSIFTVNAMGWYRQAPGKERELVAAIDGSSGSTNYADSVKGRFTISRDNAKNTVYLQMNSLKPEDTAVYYCAADWSYEYGYWGQGTQVTVSS | low polyreactivity

Row | Sequence | polyreactivity (PSR sort gate)
23 | QVQLVESGGGLVQAGGSLRLSCAASGSIFTVYAMGWSRQAPGKERELVAAITSGGSTNYADSVKGRFTISRDNAKNTVYLQMNSLKPEDTAVYDCNAVWRYGSARYGYWGQGTQVTVSS | low polyreactivity
24 | QVQLVESGGGLVQAGGSLRLSCAASGSIFTWYTMGWYRQAPGKERELVAGIRTGGSTYYADSVKGRFTISRDNAKNTVYLQMNSLKPEDTSVYYCARQRWYRQYYFTSDYWGLGTQVTVSS | high polyreactivity
25 | QVQLVESGGGLVQAGGSLRLSCAASGSIFTYNAMGWYRPAPGKERELVAAINTSGSTNYADSVKGRFTISRDNAKNTVYLQMNSLKPEVTAVFYCAAGIVVTGYYYWGQGTQVTVSS | low polyreactivity
26 | QVQLVESGGGLVQAGGSLRLSCAASGSIFTYNAMGWYRQAPGKERELVAAIRLSGGSTYYADSVKGRFTISRDNAKNTVYLQMNSLKPEDTAVYYCATEYDYGSWYPDGWGIFDYWGQGTQVTVSS | low polyreactivity
27 | QVQLVESGGGLVQAGGSLRLSCAASGSIFTYNAMGWYRQAPGKERELVATISDGGSTYYADSVKGRFTISRDNAKNTVYLQMNSLKPEDTAVYYCNKDRVSVRYEYWGQGTQVTVSS | low polyreactivity
28 | QVQLVESGGGLVQAGGSLRLSCAASGSIFTYNVMGWYRQAPGKERELVAAIRTRGDRTYYADSVKGRFTISRDNAKNTVYLQMNSLKPEDTAVYYCAAAGSYYSHEYWGQGTQVTVSS | high polyreactivity
29 | QVQLVESGGGLVQAGGSLRLSCAASGSIFTYTMGWYRQAPGKERELVAVISRSGGRTYYADSVKGRFTISRDNAKNTVYLQMNSLKPEDTAVYYCATDGHNGYYGRYDYWGQGTQVTVSS | high polyreactivity
30 | QVQLVESGGGLVQAGGSLRLSCAASGSIFTYYAKGWYRQAPGKERELVAAISRRGTRTYYADSVKGRFTISRDNAKNTVYLQMNSLKPEDTAVYYCAKVGYTYRAYEFAYWGQGTQVTVSS | high polyreactivity
31 | QVQLVESGGGLVQAGGSLRLSCAASGSIFTYYAMGWYRQAPGKEREFVAAINRSGGSTYYADSVKGRFTISRDNAKYTVYLQMNSLKPEDTAVYYCAARRGSGALRYNYWGQGTQVTVSS | high polyreactivity
32 | QVQLVESGGGLVQAGGSLRLSCAASGSIFTYYAMGWYRQAPGKERELVAAISWNGGTTYYADSVKGLFTISRDNAKNTVYLQMNSLKPEDTAVYYCNKDGSYRYDYWGQGTQVTVSS | low polyreactivity
33 | QVQLVESGGGLVQAGGSLRLSCAASGSIFTYYAMGWYRQAPGKERELVADIRWSGGSTYYADSVKGRFTISRDNAKNTVYLQMNSLKPEDTAVYFCNARYYSYWPIYNFDYWGQGTQVTVSS | low polyreactivity
34 | QVQLVESGGGLVQAGGSLRLSCAASGSIFTYYVMGWYRQAPGKERELVAAITRSGGRTYYADSVKGRFTISRDNAKNTVYLQMNSLKPEDTAVYYCAARKYTGSGSRYYYWGQGTQVTVSS | high polyreactivity
35 | QVQLVESGGGLVQAGGSLRLSCAASGSIFVAYAMGWYRQAPGKERELVAAITYSAGSTYYADSVKGRFTISRDNAKNTVYLQMNSLKPEDTAVYYCAADTYTYFLASYLYGQYDYWGQGTQVTVSS | low polyreactivity
36 | QVQLVESGGGLVQAGGSLRLSCAASGSIFVDNAMGWYRQAPGKERELVAAITDSGGRTYYADSVKGRFTISRDNAKNTVYLQMNSLKPEDTAVYYCAAGQSGYAGRRPAFGYWGQGTQVTVSS | low polyreactivity
37 | QVQLVESGGGLVQAGGSLRLSCAASGSIFVDNAMGWYRQAPGKERELVAVITLRSGSTNYADSVKGRFTISRDNAKNTVYLQMNSLKPEDTAVYYCAADETYHDYQRDTDDDYWGQGTQVTVSS | low polyreactivity
38 | QVQLVESGGGLVQAGGSLRLSCAASGSIFVDNDMGWYRPAPGKERELVAAIRSSGTSTYYADSVKGRFTISRDNAKNTVYLQMNSLKPEDTAVYYCATRYPRRHVYPKPYYYWGQGTQVTVSS | low polyreactivity
39 | QVQLVESGGGLVQAGGSLRLSCAASGSIFVDYAMGWYRQAPGKERELVAAITSTGSTTYADSVKGRFTISRDNAKNTVYLQMNSLKPEDTAVYYCAASFRWYGTVRYPYEMYYWGQGTQVTVSS | low polyreactivity
40 | QVQLVESGGGLVQAGGSLRLSCAASGSIFVFYAMGWYRQAPGKERELVATISSAGSTYYADSVKGRFTISRDNAKNTVYLQMNSLKPEDTAVYYCARGYIPSYWWYHSDRGDYWGQGTQVTVSS | low polyreactivity
41 | QVQLVESGGGLVQAGGSLRLSCAASGSIFVGNAMGWYIQAPGKERELVAAISRSGGSTYYADSVKGRFTISRDNAKNTVYLQMNSLKPEDTAVYYCAAVRKQGSGFDYWGQGTQVTVSS | high polyreactivity
42 | QVQLVESGGGLVQAGGSLRLSCAASGSIFVGNAMGWYRPAPGKERELVAAISSSGGSTYYADSVKGRFTISRDNAKNTVYLQMNSLKPEDTAVYYCAADIFSPAFDYWGQGTQVTVSS | low polyreactivity
43 | QVQLVESGGGLVQAGGSLRLSCAASGSIFVGNAMGWYRQAPAKERELVDTISWSGGSTYYADSVKGRFTISRDNAKNTVYVQMTSLKPEDTAVYYCAKTPYRRYRYGCYTYRTYDYWGHGTQVTVSS | low polyreactivity
